The source of these data is patent US20220267447A1.

Assay [1] addresses TYK2 kinase domain (JH1). Put plainly: cell-based or functional assay.
Assay [2] has as its target JAK2 kinase domain (JH1). Put plainly: cell-based or functional assay.
Assay [3] has as its target JAK1 kinase domain (JH1) (Homo sapiens (Human)) (UniProt P23458). Put plainly: cell-based or functional assay.
Assay [4] has as its target JAK3 kinase domain (JH1). Kind of assay: cell-based or functional assay.
Assay [5] deals with JAK1-Y1034 phosphopeptide with an alanine substitution at the +3 position (Homo sapiens). Put plainly: ITC. (In general: Isothermal titration calorimetry measures the heat released or taken up as one component is titrated into another.)
In assay [6] the target is JAK1 activation loop phosphopeptide (Tyr1034 phosphorylated) (Homo sapiens). Kind of assay: ITC.

Sequence of JAK1 kinase domain (JH1) (Homo sapiens (Human)) (P23458 854-1154 limits assumed): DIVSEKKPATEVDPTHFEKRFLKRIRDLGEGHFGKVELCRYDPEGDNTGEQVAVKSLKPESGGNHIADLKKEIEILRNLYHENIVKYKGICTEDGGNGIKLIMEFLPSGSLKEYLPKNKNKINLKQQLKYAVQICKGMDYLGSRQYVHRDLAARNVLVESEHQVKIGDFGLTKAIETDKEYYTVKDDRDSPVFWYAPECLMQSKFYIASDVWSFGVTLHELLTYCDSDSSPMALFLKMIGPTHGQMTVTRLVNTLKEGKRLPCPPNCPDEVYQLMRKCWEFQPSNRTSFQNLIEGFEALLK
Sequence of human CIS lacking the N-terminal 34 residues (AN34), trimeric complex with elongin B and elongin C (Q9NSE2 35-258): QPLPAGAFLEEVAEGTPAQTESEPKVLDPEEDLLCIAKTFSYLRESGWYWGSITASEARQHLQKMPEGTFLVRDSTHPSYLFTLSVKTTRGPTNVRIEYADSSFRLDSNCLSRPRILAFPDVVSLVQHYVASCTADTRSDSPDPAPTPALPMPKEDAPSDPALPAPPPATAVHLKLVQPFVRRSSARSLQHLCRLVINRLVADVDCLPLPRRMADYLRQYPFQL
Sequence of human CIS lacking the N-terminal 34 residues (AN34), trimeric complex with elongin B and elongin C (Q15370 whole entry): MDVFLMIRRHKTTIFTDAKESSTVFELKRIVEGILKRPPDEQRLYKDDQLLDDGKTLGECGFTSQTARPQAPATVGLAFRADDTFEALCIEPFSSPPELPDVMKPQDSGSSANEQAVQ
Sequence of human CIS lacking the N-terminal 34 residues (AN34), trimeric complex with elongin B and elongin C (Q15369 17-112): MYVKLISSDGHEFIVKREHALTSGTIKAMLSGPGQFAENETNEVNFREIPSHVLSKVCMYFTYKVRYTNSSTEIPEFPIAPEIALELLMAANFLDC

With “hCIS-SH2-BC: recombinant trimeric complex of a human GST-CIS construct (hCIS-SH2) with Elongins B and C (from UniProt Q9NSE2 66-258; Q15370 1-118; Q15369 17-112)”, the kinase inhibition relative to inhibition of JAK1 (in vitro kinase assay with JH1 domains) in assay [1], in assay [2] and in assay [4] was 20 fold each time. The substance further displayed an IC50, inhibition of JAK1 phosphorylation of a substrate peptide (in vitro kinase assay) in assay [3] of 120 nM. Further, the efficiency of JAK1 JH1 kinase inhibition relative to SOCS1 in assay [3] is 100 fold.

With “human CIS lacking both the N-terminal region (residues 1-66) and the PEST motif (ANT/APEST), trimeric complex with elongin B and elongin C (from UniProt Q9NSE2 67-258; Q15370 1-118; Q15369 17-112)”, the fold reduction of binding against the wild-type JAK1-Y1034 phosphopeptide in assay [5] was determined as 4 fold. In assay [3], the IC50, inhibition of the JAK1 kinase domain (JH1) in an in vitro kinase reaction is 600 nM.

Turning to “human CIS lacking the N-terminal 34 residues (AN34), trimeric complex with elongin B and elongin C (from UniProt Q9NSE2 35-258; Q15370 1-118; Q15369 17-112)”, the Kd in assay [6] is 2200 to 10000 nM.

By Kd is commonly meant the free concentration of one partner at which half of the binding sites on the other are occupied at equilibrium, for simple one-to-one binding.
